Reference: article PMC13061415, “A structural code for assembly specificity in GID/CTLH-type E3 ligases” (eLife, 2026)
“And” between values parts separate entries of the source, which are not always exact repeats. Identical values can stand only once.

B5: muskelin CTLH-CRA domain (205–735 Δ248–625) (domain or fragment, rat, UniProt Q99PV3 205-735, looked up)
chain: EHPMLTDMHDKLVLKGDFDACEELIEKAVNDGLFNQYISQQEYPSKDYLLRHCKYLIRKHRFEEKAQMDPLSALKYLQNDLYITVDHSDPEETKEFQLLASALFKSGSDFTALGFSDVDHTYAQRTQLFDTLVNFFPDSMTPPKGNLVDLITL
notes: muskelin, rat, fusion of the CTLH motif and the C-terminus (CRA^N-like): residues 205-735 with 248-625 deleted; also called muskelin wt; CTLH-Ct construct; source: E. coli BL21 CodonPlus (DE3) RIL, purified as described previously (van gen Hassend et al., 2023)
B7: Twa1_14 mutant (A125G, Q126R, ΔT127, Q128E, A130Q, M143L, E144Q, L147F, A148S, F152Y, F160V; 58–190), CTLH-CRA domain (domain or fragment, mouse, UniProt Q9D7M1 58-190, looked up)
chain: SVDLETLDERIKIREMILKGQIQEAIALINSLHPELLDTNRYLYFHLQQQHLIELIRQRETEAALEFGRELQEQGEESRECLTELQRTFSLLAYDSPEESPVGDLLHMMQRQKVWSEVNQAVLDYENRESTP
notes: Twa1, mouse, CTLH-CRA domain 58-190 with eleven RanBP10-like changes; also called Twa_14; source: E. coli BL21 CodonPlus (DE3) RIL, purified (Ni-IDA, 3C cleavage, SEC); not shown: His6, N-terminal, cleaved

How the values were obtained:
[1] = biological target: T1, RanBP9 (69–653)-Twa1 (1–228) complex (mouse, UniProt P69566 69-653; Q9D7M1 1-228); test: ITC; competition: RanBP9-Twa1 or RanBP10-Twa1 complex (160 μM) titrated into pre-formed Twa1_52-muskelin or Twa1_52-Wdr26 complex (16 μM); 25°C; competitive binding model with the parameters of the first titration; settings: both partners purified
T1 construct: RanBP9, mouse, residues 69-653; Twa1, mouse, residues 1-228; In the text on the KD values the complex is called simply RanBP9; also called RanBP9-Twa1; source: E. coli BL21 CodonPlus (DE3) RIL, complex purified as described previously (van gen Hassend et al., 2023)

[2] = biological target: the molecule itself; test: SEC-MALS; ITC-assembled samples: excess RanBP9-Twa1 added to pre-assembled Twa1_52-muskelin or Twa1_52-Wdr26; Superose 6 10/300 GL
[3] = biological target: the molecule itself; test: SEC-MALS; Maea CTLH-CRA dilution series, Superdex 200 10/300 GL; molar masses of 0.3 ml peak fractions against concentration, one-site binding fit; the constant is of the step tetramer (dimer of dimers) to dimers
[4] = biological target: T2, Twa1_10 mutant (A130Q, L147F, F152Y, F160V), CTLH-CRA domain (mouse, UniProt Q9D7M1 58-190, A130Q | L147F | F152Y | F160V); test: native gel or EMSA; native agarose gel electrophoresis (NAGE): CTLH-CRA domains at 200 μM incubated with the partner at least 30 min at room temperature; 0.8% agarose, 25 mM Tris, 200 mM glycine, 4°C; Coomassie; settings: both partners purified
T2 construct: Twa1, mouse, CTLH-CRA domain 58-190 with four RanBP10-like substitutions; source: E. coli BL21 CodonPlus (DE3) RIL, purified (Ni-IDA, 3C cleavage, SEC); not shown: His6, N-terminal, cleaved

[5] = biological target: B7; test: as above; settings: both partners purified
Twa1 (1–228) = biological target: T3, Twa1 (1–228) (mouse, UniProt Q9D7M1 1-228); test: SEC-MALS; Superdex 200 10/300 GL; Twa1 (1–228) alone, co-expressed Twa1-Rmnd5a (CTLH-CRA) and Twa1-Maea (CTLH-CRA) complexes, Maea double mutant (Y272A, Y275A); settings: both partners purified
T3 construct: Twa1, mouse, residues 1-228; A homodimer on its own (SEC-MALS); one copy pairs with RanBP10 in the heterodimer of PDB 9SOC; also called full-length dimeric Twa1; source: E. coli BL21 CodonPlus (DE3) RIL, purified as described previously (van gen Hassend et al., 2023)

[6] = biological target: the molecule itself; test: as above
[7] = biological target: T4, Twa1_52 mutant (A125G, Q126R, Δ127T, L140K, E144K, L147F, F152Y, F160V), CTLH-CRA domain (mouse, UniProt Q9D7M1 58-190, A125G | Q126R | Δ127T | L140K | E144K | L147F | F152Y | F160V); test: SEC-MALS; purified CTLH-CRA domains alone or mixed (RanBP10 and Twa1 variants with Maea or muskelin), final concentration 250 μM, Superdex 75 10/300 GL; settings: both partners purified
T4 construct: Twa1, mouse, CTLH-CRA domain 58-190 with eight changes; source: E. coli BL21 CodonPlus (DE3) RIL, purified (Ni-IDA, 3C cleavage, SEC); also tagless, co-expressed with muskelin or Wdr26 CTLH-CRA domain; not shown: His6, N-terminal, cleaved

[8] = biological target: T5, RanBP9 CTLH-CRA domain (324–614, Δ391–534) (mouse, UniProt P69566 324-614, Δ391–534); test: SEC-MALS; CTLH-CRA domain complexes co-expressed in E. coli and purified as complexes; Superdex 75 10/300 GL; 20 mM tricine pH 8.0, 500 mM NaCl, 1 mM TCEP; settings: both partners purified
T5 construct: RanBP9, mouse, fusion of CTLH and CRA^N: residues 324-614 with the linker 391-534 deleted (without the CRA^C segment); A longer construct with the CRA^C segment (324–638, Δ391–534) was crystallised alone (PDB 9SNE); also called R9

[9] = biological target: B5; test: ITC; muskelin CTLH-CRA (160 μM, syringe) titrated into RanBP10 or Twa1 CTLH-CRA variants (16 μM, cell); 25°C; 20 mM tricine pH 8.0, 500 mM NaCl, 1 mM TCEP; one-site model; settings: both partners purified

T1 sequence (P69566 69-653, chain 1 of 2): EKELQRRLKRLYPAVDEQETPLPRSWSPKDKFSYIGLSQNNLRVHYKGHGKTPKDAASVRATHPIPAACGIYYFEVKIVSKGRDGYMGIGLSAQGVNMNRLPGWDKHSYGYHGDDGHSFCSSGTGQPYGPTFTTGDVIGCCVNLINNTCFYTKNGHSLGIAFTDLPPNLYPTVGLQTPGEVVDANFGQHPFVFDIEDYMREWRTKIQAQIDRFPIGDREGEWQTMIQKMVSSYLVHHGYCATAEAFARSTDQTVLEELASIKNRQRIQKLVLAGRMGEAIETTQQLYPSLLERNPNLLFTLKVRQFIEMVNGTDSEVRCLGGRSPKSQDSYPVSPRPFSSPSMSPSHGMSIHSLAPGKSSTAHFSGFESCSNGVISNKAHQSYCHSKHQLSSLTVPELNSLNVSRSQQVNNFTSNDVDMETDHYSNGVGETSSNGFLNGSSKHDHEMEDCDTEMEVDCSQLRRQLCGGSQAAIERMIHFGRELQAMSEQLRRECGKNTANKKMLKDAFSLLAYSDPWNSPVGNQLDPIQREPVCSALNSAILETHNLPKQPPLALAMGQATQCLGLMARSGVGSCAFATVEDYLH
T1 sequence (Q9D7M1 whole entry, chain 2 of 2, the tested form may be a part): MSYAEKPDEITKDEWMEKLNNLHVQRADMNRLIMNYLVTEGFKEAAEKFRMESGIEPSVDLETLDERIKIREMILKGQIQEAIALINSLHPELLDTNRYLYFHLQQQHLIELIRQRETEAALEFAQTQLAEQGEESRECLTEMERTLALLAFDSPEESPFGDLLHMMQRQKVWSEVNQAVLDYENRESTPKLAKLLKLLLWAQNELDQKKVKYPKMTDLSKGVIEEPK
T3 sequence (Q9D7M1 whole entry, the tested form may be a part): as the sequence (Q9D7M1 whole entry, chain 2 of 2, the tested form may be a part) above
T5 sequence (P69566 other isoform, or with tags, fused parts or gaps Δ391–534 | Δ391–534 | mutant): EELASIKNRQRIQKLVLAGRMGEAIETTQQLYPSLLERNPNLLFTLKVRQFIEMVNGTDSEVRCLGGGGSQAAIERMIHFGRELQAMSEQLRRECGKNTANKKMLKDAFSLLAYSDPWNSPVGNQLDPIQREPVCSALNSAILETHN

B1: muskelin (1–735) (natural protein, rat, UniProt Q99PV3 1-735, looked up)
chain: MAAGGAVAAAPECRLLPYALHKWSSFSSTYLPENILVDKPNDQSSRWSSESNYPPQYLILKLERPAIVQNITFGKYEKTHVCNLKKFKVFGGMNEENMTELLSSGLKNDYNKETFTLKHKIDEQMFPCRFIKIVPLLSWGPSFNFSIWYVELSGIDDPDIVQPCLNWYSKYREQEAIRLCLKHFRQHNYTEAFESLQKKTKIALEHPMLTDMHDKLVLKGDFDACEELIEKAVNDGLFNQYISQQEYKPRWSQIIPKSTKGDGEDNRPGMRGGHQMVIDVQTETVYLFGGWDGTQDLADFWAYSVKENQWTCISRDTEKENGPSARSCHKMCIDIQRRQIYTLGRYLDSSVRNSKSLKSDFYRYDIDTNTWMLLSEDTAADGGPKLVFDHQMCMDSEKHMIYTFGGRILTCNGSVDDSRASEPQFSGLFAFNCQCQTWKLLREDSCNAGPEDIQSRIGHCMLFHSKNRCLYVFGGQRSKTYLNDFFSYDVDSDHVDIISDGTKKDSGMVPMTGFTQRATIDPELNEIHVLSGLSKDKEKREENVRNSFWIYDIVRNSWSCVYKNDQAAKENLSKSLQEEEPCPRFAHQLVYDELHKVHYLFGGNPGKSCSPKMRLDDFWSLKLCRPSKDYLLRHCKYLIRKHRFEEKAQMDPLSALKYLQNDLYITVDHSDPEETKEFQLLASALFKSGSDFTALGFSDVDHTYAQRTQLFDTLVNFFPDSMTPPKGNLVDLITL
notes: muskelin, rat, residues 1-735; also called full-length muskelin; tetrameric muskelin; source: E. coli BL21 CodonPlus (DE3) RIL, purified as described previously (van gen Hassend et al., 2023)
B1 was tested, and the Kd [1] was 0.0795 nM and the “stoichiometry N” value [2] was 4.

B2: Wdr26 (102–641) (domain or fragment, mouse, UniProt Q8C6G8 102-641, looked up)
chain: QSDEDVIRLIGQHLNGLGLNQTVDLLMQESGCRLEHPSATKFRNHVMEGDWDKAENDLNELKPLVHSPHAIVVRGALEISQTLLGIIVRMKFLLLQQKYLEYLEDGKVLEALQVLRCELTPLKYNTERIHVLSGYLMCSHAEDLRAKAEWEGKGTASRSKLLDKLQTYLPPSVMLPPRRLQTLLRQAVELQRDRCLYHNTKLDNNLDSVSLLIDHVCSRRQFPCYTQQILTEHCNEVWFCKFSNDGTKLATGSKDTTVIIWQVDPDTHLLKLLKTLEGHAYGVSYIAWSPDDSYLVACGPDDCSELWLWNVQTGELRTKMSQSHEDSLTSVAWNPDGKRFVTGGQRGQFYQCDLDGNLLDSWEGVRVQCLWCLSDGKTVLASDTHQRVRGYNFEDLTDRNIVQEDHPIMSFTISKNGRLALLNVATQGVHLWDLQDRVLVRKYQGVTQGFYTIHSCFGGHNEDFIASGSEDHKVYIWHKRSELPIAELTGHTRTVNCVSWNPQIPSMMASASDDGTVRIWGPAPFIDHQNIEEECSSMDS
notes: Wdr26, mouse, residues 102-641; also called dimeric Wdr26; (near) full-length Wdr26; source: E. coli BL21 CodonPlus (DE3) RIL, purified as described previously (van gen Hassend et al., 2023)
With B2 the Kd [1] was 0.412 nM and the “stoichiometry N” value [2] was 2.

B3: Maea CTLH-CRA domain (156-279) (domain or fragment, mouse, UniProt Q4VC33 156-279, looked up)
chain: NIEMFLTAKEVEESLERRETATCLAWCHDNKSRLRKMKSCLEFSLRIQEFIELVRQNKRLDAVRHARKHFSQAEGSQLDEVRQVMGMLAFPPDTHISPYKDLLDPARWRMLIQQFRYDNYRLHQ
notes: Maea, mouse, residues 156-279; In solution between a dimer and a tetramer (dimer of dimers), depending on concentration; source: E. coli BL21 CodonPlus (DE3) RIL, purified (Ni-IDA, 3C cleavage, SEC); also co-expressed with Twa1 (1–228); not shown: His6, N-terminal, cleaved
B3 was tested, and the Kd [3] was about 5000 nM, the “stoichiometry N” value [3] was 2 and 4 and the binding result [4] was “binds”. For the same binder, the binding result [5] was “binds” and the “stoichiometry N” value (Twa1 (1–228)) was 1.

B4: Maea CTLH-CRA domain double mutant (Y272A, Y275A) (domain or fragment, mouse, UniProt Q4VC33 156-279, looked up)
chain: NIEMFLTAKEVEESLERRETATCLAWCHDNKSRLRKMKSCLEFSLRIQEFIELVRQNKRLDAVRHARKHFSQAEGSQLDEVRQVMGMLAFPPDTHISPYKDLLDPARWRMLIQQFRADNARLHQ
notes: Maea, mouse, CTLH-CRA domain; also called Maea double mutant; source: E. coli BL21 CodonPlus (DE3) RIL, purified (Ni-IDA, 3C cleavage, SEC); not shown: His6, N-terminal, cleaved
B4 was tested, and the “stoichiometry N” value [6] was 2.

In the case of B5, the “stoichiometry N” value [7] is reported as 1.

B6: muskelin CTLH-CRA domain, C-terminally shortened (205–719, Δ248–624) (domain or fragment, rat, UniProt Q99PV3 205-719, looked up)
chain: EHPMLTDMHDKLVLKGDFDACEELIEKAVNDGLFNQYISQQEYRPSKDYLLRHCKYLIRKHRFEEKAQMDPLSALKYLQNDLYITVDHSDPEETKEFQLLASALFKSGSDFTALGFSDVDHTYAQRTQLFDTLVNFFP
notes: muskelin, rat, residues 205-719 with 248-624 deleted; Insoluble on its own; soluble only when co-expressed with RanBP9/10 CTLH-CRA domains; also called muskelin (shortened C-terminus); Mkln; not shown: His6, N-terminal, cleaved
In the case of B6, the “stoichiometry N” value [8] is reported as 1.

In the case of B7, the Kd [9] is reported as 192 nM.

B8: Rmnd5a CTLH-CRA domain (147-275) (domain or fragment, mouse, UniProt Q80YQ8 147-275, looked up)
chain: DPSQKEPFVELNRILEALKVRVLRPALEWAVSNREMLIAQNSSLEFKLHRLYFISLLMGGTTNQREALQYAKNFQPFALNHQKDIQVLMGSLVYLRQGIENSPYVHLLDANQWADICDIFTRDACALLG
notes: Rmnd5a, mouse, residues 147-275; Could not be purified on its own; soluble when co-expressed with Twa1; source: E. coli BL21 CodonPlus (DE3) RIL, co-expressed with Twa1 (1–228), complex purified (Ni-IDA, 3C cleavage, SEC); not shown: His6, N-terminal, cleaved
B8 was tested, and the “stoichiometry N” value (Twa1 (1–228)) was 1.
